# From patent publication US20150203556A1 (UAB RESEARCH FOUNDATION, published 2015)
# T1: IL-20/IL-20R2 binary complex (human, UniProt Q9NYY1 25-176; Q6UXL0 30-230)
# T1 construct: also called 20 + 20R2; IL-20+soluble IL-20R2
# T1 chain 1: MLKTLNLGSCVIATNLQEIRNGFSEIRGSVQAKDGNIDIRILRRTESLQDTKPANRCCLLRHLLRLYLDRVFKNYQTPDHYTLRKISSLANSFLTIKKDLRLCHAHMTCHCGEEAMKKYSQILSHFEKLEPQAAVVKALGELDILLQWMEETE
# T1 chain 2: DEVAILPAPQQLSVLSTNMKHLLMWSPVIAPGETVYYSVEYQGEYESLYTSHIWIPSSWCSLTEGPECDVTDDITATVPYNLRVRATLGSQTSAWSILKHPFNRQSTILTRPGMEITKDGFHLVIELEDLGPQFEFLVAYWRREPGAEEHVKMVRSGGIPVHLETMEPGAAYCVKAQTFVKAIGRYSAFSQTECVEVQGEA
# T2: IL-19 (human, UniProt Q9UHD0 25-177)
# T2 construct: also called Interleukin-19; IL-19a
# T2 sequence: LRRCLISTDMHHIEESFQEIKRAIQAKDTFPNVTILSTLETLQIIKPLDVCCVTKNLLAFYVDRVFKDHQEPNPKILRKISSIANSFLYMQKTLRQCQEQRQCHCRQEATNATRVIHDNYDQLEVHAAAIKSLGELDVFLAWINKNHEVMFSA
# T3: IL-20 (human, UniProt Q9NYY1 25-176)
# T3 construct: The crystal model holds residues 24-176; also called Interleukin-20; IL-20b
# T3 sequence: T1 chain 1
# B1: IL-22R1 (sIL-22R1DDQ) (receptor)
# chain: HAPEDPSDLLQHVKFQSSNFENILTWDSGPEGTPDTVYSIEYKTYGERDWVAKKGCQRITRKSCDLTVETGDLQELYYARVTAVSAGGRSATKMTDRFSSLQHTTLKPPDVTCISKVRSIQMIVHPTPTPIRAGDGHRLTLEDIFHDLFYHLELQVNRTYQMHLGGKQREYEFFGLTPDTEFLGTIMICVPTWAKESAPYMCRVKTLPDRT
# B2: IL-20R2-FC (Fc fusion)
# chain: DEVAILPAPQQLSVLSTNMKHLLMWSPVIAPGETVYYSVEYQGEYESLYTSHIWIPSSWCSLTEGPECDVTDDITATVPYNLRVRATLGSQTSAWSILKHPFNRQSTILTRPGMEITKDGFHLVIELEDLGPQFEFLVAYWRREPGAEEHVKMVRSGGIPVHLETMEPGAAYCVKAQTFVKAIGRYSAFSQTECVEVQGEAGSGGGGPSVFIFPPKIKDVLMISLSPIVTCVVVDVSEDDPDVQISWFVNNVEVHTAQTQTHREDYNSTLRVVSALPIQHQDWMSGKEFKCKVNNKDLPAPIERTISKPKGSVRAPQVYVLPPPEEEMTKKQVTLTCMVTDFMPEDIYVEWTNNGKTELNYKNTEPVLDSDGSYFMTSKLRVEKKNWVERNSYSCSVVHEGLHNHHTTKSFGGCGTPASGGLNDIFEAQKIEWHE
# notes: also called IL-20-FC
# B3: soluble IL-20R1 (receptor)
# chain: VPCVSGGLPKPANITFLSINMKNVLQWTPPEGLQGVKVTYTVQYFIYGQKKWLNKSECRNINRTYCDLSAETSDYEHQYYAKVKAIWGTKCSKWAESGRFYPFLETQIGPPEVALTTDEKSISVVLTAPEKWKRNPEDLPVSMQQIYSNLKYNVSVLNTKSNRTWSQCVTNHTLVLTWLEPNTLYCVHVESFVPGPPRRAQPSEKQCARTLKDQSS
# Experiments:
# [1] = target: T1, IL-20/IL-20R2 binary complex; experiment: SPR co-injection: IL-20 fixed at 250 nM with IL-22R1 (1000-7.81 nM) over amine coupled IL-20R2; 250 nM IL-20 sensorgram subtracted; 1:1 fit, apparent value
# Method: (§1) FIGS. 12A-12H are graphs showing IL19/IL-20 receptor interactions and complex stability. SPR sensorgrams, data fits (black lines), KD values, and residual errors obtained for complexes described at the top of each panel. Panels are labeled as injected soluble proteins, followed by a semicolon (:), then the protein coupled to chip surface, IL-20R1 or IL-20R2. FIGS. 12A and 12B show injection of IL-19 and IL-20 (max conc.=10 μM, 2 fold diluted to 0.625 μM) over IL-20R1. FIGS. 12C and 12D show injection of IL-19 (max conc.=500 nM, 2-fold diluted to 3.91 nM) or IL-20 (max conc.=2000 nM, 2-fold diluted to 62.5 nM) over IL-20R2. FIGS. 12E-12H show IL-19 and IL-20 (fixed at 250 nM) mixed with different concentrations of IL-20R1, or IL-22R1, (max conc.=1000 nM, 2-fold diluted to 7.81 nM) and injected over IL-20R2. To estimate R1 chain affinity/complex stability, the contribution of the ligand was removed by using the 250 nM IL-19, or IL-20, sensorgram as the blank subtraction. All sensorgrams were fit to 1:1 binding models.
# (§2) Surface Plasmon Resonance Experiments SPR experiments were performed on Biacore T-100, and T-200, (GE healthcare, Waukesha, Wis.) systems. […] Soluble proteins were injected for 75-90 seconds (30 uL/min) over the surfaces, and the dissociation phase was followed for 75-120 seconds depending on the stability of the complex being analyzed. […]
# [2] = target: T1, IL-20/IL-20R2 binary complex; experiment: SPR co-injection: IL-20 fixed at 250 nM with IL-22R1 (1000-7.81 nM) over amine coupled IL-20R2; 250 nM IL-20 sensorgram subtracted; 1:1 fit, apparent KD (KDapp)
# Method: as §1, §2
# IL-19 = target: T2, IL-19; experiment: SPR (Biacore), IL-19 (500-3.91 nM) over IL-20R2-fc captured by anti-FC Ab, 1:1 fit
# Method: as §1, with “SPR” for “FIGS. 12A-12H are graphs showing IL19/IL-20 receptor interactions and complex stability. SPR”
# (§3) Surface Plasmon Resonance Experiments SPR experiments were performed on Biacore T-100, and T-200, (GE healthcare, Waukesha, Wis.) systems. Soluble IL-20R2 was amine coupled (100-130 RU) to CM5 research grade biacore chips in 10 mM sodium acetate, pH 5.0. IL-20R1-FC and IL-20R2-FC were coupled (60-120 RU) to CM5 chips using an anti-FC Ab coupling kit using the manufacturer's instructions (GE healthcare, Waukesha, Wis.). All binding experiments were performed in running buffer consisting of 10 mM Hepes, pH 7.4, 150 mM NaCl, 0.04% P20, and 0.1 mg/mL bovine serum albumin (Sigma, St. Louis, Mo.). No regeneration was performed between sample injections on IL-20R2 amine-coupled surfaces. […] Soluble proteins were injected for 75-90 seconds (30 uL/min) over the surfaces, and the dissociation phase was followed for 75-120 seconds depending on the stability of the complex being analyzed. […]
# IL-19/IL-20R2 and IL-20/IL-20R2 interactions were determined by SPR methods with IL-20R2 attached to a biacore chip by amine coupling, or as an IL-20R2-FC fusion protein.
# IL-20 [3] = target: T3, IL-20; experiment: SPR (Biacore), IL-20 (2000-62.5 nM) over IL-20R2-fc captured by anti-FC Ab, 1:1 fit
# IL-20 [4] = target: T3, IL-20; experiment: SPR, site KD as listed in Table 5
# IL-20 [5] = target: T3, IL-20; experiment: SPR, IL-20 over IL-20R2 (FIG. 12D)
# Method: as §1, §2
# [6] = target: T4, IL-20 bound on IL-20R2-fc (IL-20/IL-20R2-fc binary complex) (human, UniProt Q9NYY1 25-176); experiment: SPR co-injection: IL-20 fixed at 250 nM with IL-20R1 (1000-7.81 nM) over IL-20R2-fc; 250 nM IL-20 sensorgram subtracted; 1:1 fit, apparent value
# Method: as §1, §2
# [7] = target: T5, IL-19 bound on IL-20R2-fc (IL-19/IL-20R2-fc binary complex) (human, UniProt Q9UHD0 25-177); experiment: SPR co-injection: IL-19 fixed at 250 nM with IL-20R1 (1000-7.81 nM) over IL-20R2-fc; 250 nM IL-19 sensorgram subtracted; 1:1 fit, apparent KD (KDapp)
# Method: (§4) To estimate R1 chain affinity/complex stability, the contribution of the ligand was removed by using the 250 nM IL-19, or IL-20, sensorgram as the blank subtraction. All sensorgrams were fit to 1:1 binding models.
# (§5) To estimate the stability of IL-20 (IL-20/IL-20R1/IL-20R2 and IL-20/IL-22R1/IL-20R2) and IL-19 (IL-19/IL-20R1/IL-20R2) ternary complexes (FIG. 1), IL-19, or IL-20, was co-injected with soluble IL-20R1 over a biacore chip coupled with IL-20R2. […] The same results, although with different KDapp values, were obtained by evaluating ternary complex stability by injecting soluble IL-20R2 and IL19, or IL-20, over biacore chip surfaces of IL-20R1 or IL-22R1 (FIG. 13).
# as §3, with “Wis.).” for “Wis.). All binding experiments were performed in running buffer consisting of 10 mM Hepes, pH 7.4, 150 mM NaCl, 0.04% P20, and 0.1 mg/mL bovine serum albumin (Sigma, St. Louis, Mo.). No regeneration was performed between sample injections on IL-20R2 amine-coupled surfaces.”
# [8] = target: T4, IL-20 bound on IL-20R2-fc …; experiment: SPR co-injection: IL-20 fixed at 250 nM with IL-20R1 (1000-7.81 nM) over IL-20R2-fc; 250 nM IL-20 sensorgram subtracted; 1:1 fit, apparent KD (KDapp)
# Method: as §4, §5
# as §3, with “Wis.).” for “Wis.). All binding experiments were performed in running buffer consisting of 10 mM Hepes, pH 7.4, 150 mM NaCl, 0.04% P20, and 0.1 mg/mL bovine serum albumin (Sigma, St. Louis, Mo.). No regeneration was performed between sample injections on IL-20R2 amine-coupled surfaces.”
# [9] = target: T5, IL-19 bound on IL-20R2-fc …; experiment: SPR co-injection: IL-19 fixed at 250 nM with IL-20R1 (1000-7.81 nM) over IL-20R2-fc; 250 nM IL-19 sensorgram subtracted; 1:1 fit, apparent value
# Method: as §1, §2
binder,measurement,setting,value
B1,koff,[1],0.0893 s⁻¹
same,kon,[1],65500 M⁻¹ s⁻¹
same,Kd,[2],1360 nM
B2,Kd,IL-19,105 nM
same,koff,IL-19,0.0242 s⁻¹
same,kon,IL-19,230000 M⁻¹ s⁻¹
same,Kd,IL-20 [3],686 nM
same,koff,IL-20 [3],0.219 s⁻¹
same,kon,IL-20 [3],319000 M⁻¹ s⁻¹
same,Kd,IL-20 [4],687 nM
same,Kd,IL-20 [5],697 nM
B3,koff,[6],0.0171 s⁻¹
same,kon,[6],53700 M⁻¹ s⁻¹
same,Kd,[7],3120 nM
same,Kd,[8],319 nM
same,koff,[9],0.139 s⁻¹
same,kon,[9],44500 M⁻¹ s⁻¹
